These results are taken from publication PMC5228053.

The test addresses pyruvate kinase type M2 (PKM2) (human (endogenous in A549)) (UniProt P14618). The test can be described thus: cross-linking; A549 cells in PBS (2 mg/ml protein), EDC 10 mM / sulfo-NHS 5 mM, room temperature, quenched with 20 mM DTT, then western blot for PKM2; cells treated with pTyr peptide, FBP or serine. (In general: Immunoblotting shows a protein as a band on a membrane.)

Chain of pyruvate kinase type M2 (PKM2), P14618 1-531 (enzyme; other documents disagree on this pair) (P14618 whole entry): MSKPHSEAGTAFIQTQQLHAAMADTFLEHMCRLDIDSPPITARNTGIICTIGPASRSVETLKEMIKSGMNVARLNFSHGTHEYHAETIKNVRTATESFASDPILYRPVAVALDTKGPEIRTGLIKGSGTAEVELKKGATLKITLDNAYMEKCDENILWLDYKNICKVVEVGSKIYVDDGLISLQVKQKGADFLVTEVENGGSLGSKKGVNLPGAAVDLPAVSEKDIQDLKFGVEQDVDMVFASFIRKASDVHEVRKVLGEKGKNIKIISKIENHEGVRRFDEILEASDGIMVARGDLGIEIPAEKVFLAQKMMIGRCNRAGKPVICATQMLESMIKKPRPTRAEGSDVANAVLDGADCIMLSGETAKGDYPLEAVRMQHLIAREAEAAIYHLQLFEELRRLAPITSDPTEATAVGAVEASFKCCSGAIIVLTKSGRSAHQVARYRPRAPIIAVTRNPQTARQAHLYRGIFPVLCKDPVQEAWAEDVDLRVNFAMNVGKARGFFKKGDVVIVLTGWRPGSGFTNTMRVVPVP

With “pyruvate kinase type M2 (PKM2), P14618 1-531 (enzyme; other documents disagree on this pair)”, the stoichiometry N is 2.

The stoichiometry N is a count of units in the complex or per binding partner.
